We go through four molecules from patent US20240282401A1, “METHODS FOR ENZYME ENGINEERING” (The University of Manchester, priority 2021, published 2024).

Series [1] is described as follows: Biotransformation of PPY by purified HDNO variants (GC-FID, chiral HPLC). In kind it is biochemical. The following applies: for rate / activity increase towards PPY oxidation versus HDNO D2: biotransformation measurements. On the procedure:
(§1) Chiral normal phase HPLC was performed on an Agilent HPLC system (G1379A degasser, G1312A binary pump, a G1367A well plate autosampler unit, a G1316A temperature-controlled column compartment and a G1315C diode array detector) (Agilent Technologies Inc., Santa Clara, CA) equipped with a CHIRALCEL OD-H (250 mm length, 4.6 mm diameter, 5 μm particle size) analytical column (Daicel Corp., Osaka, Japan). The typical injection volume was 10 μL and chromatograms were monitored at 265 nm. Gas chromatographic (GC) analysis was performed on an Agilent 6850 GC (Agilent Technologies Inc., Santa Clara, CA) with a flame ionization detector and autosampler equipped with a HP-1 column of length 30 m, 0.32 mm inner diameter and 0.25 μm film thickness (Agilent Technologies Inc., Santa Clara, CA).
A typical 500 μL reaction mixture in a 2 mL tube contained 10 mM amine, 0.05 to 1 mg mL^−1 of purified HDNO variant in pH 8 100 mM NaPi buffer. Reactions were incubated at 30° C. with 250 r.p.m shaking for different reaction times, after which they were quenched by the addition of 50 μL of 10 M NaOH and extracted twice with 500 μL tert-butyl methyl ether (HPLC grade, Merck Life Science UK Limited, Gillingham). The organic fractions were combined and dried over anhydrous MgSO4 and analysed by GC-FID (conversions) or HPLC (enantiomeric ratios) on a chiral stationary phase (see Chromatography section for details). Turnover frequencies (TOF, min^−1) were calculated as the moles of product formed/moles of enzyme min^−1 based on conversions obtained by GC-FID analysis (see Chromatography method). The same response factor was considered for both substrate and product.

Series [2] can be described thus: Kinetic parameters by HRP-ABTS assay. In kind it is biochemical. The following applies: oxidation of 2-phenylpyrrolidine, 30° C., pH 8. As to the method: Kinetic parameters of different HDNO variants were determined using the ABTS-HRP assay. Samples of 20 μL of substrate at different concentrations in DMSO (0.05 mM-10 mM, 10% DMSO final concentration) was diluted in 130 μL of reacting solution which contained 0.2 mg ml^−1 HRP (IV, Sigma) and 0.4 mg ml^−1 ABTS in 100 mM pH 8 NaPi buffer. The assay was started by adding 50 μL purified enzyme (typically 0.1-2 mg ml^−1 concentration). Production of the reduced ABTS was measured using a Tecan infinite M200 microplate reader (Tecan Group Limited, Mannedorf, Switzerland) at 420 nm (E=36 mM^−1 cm^−1) and 30° C. for 10 min. Measurements were made in triplicate and a 1:1 ratio for the oxidation of substrate to the production of hydrogen peroxide was assumed. Rate was plotted against substrate concentration and Vmax and KM values extracted using non-linear regression analysis with a fit to the Michaelis-Menten equation using Prism software (GraphPad Software, San Diego, CA). Protein concentrations for kinetic parameters were determined using the Bradford assay following supplier's instructions using bovine serum albumin (BSA) standards for calibration (Merck Life Science UK Limited, Gillingham).

Series [3] in a line: Thermal stability: residual activity after incubation at 45° C. or 50° C. (GC). The following applies: 60 min. In kind it is physicochemical. On the procedure: A subset of mutants was selected and inserted into the HDNO D3 and D6 variants by site directed mutagenesis either alone or in pairs to also check for interactions that would further stabilise the enzyme. Namely, D3-K208E, D6-K208E, D6-R207E, D6-K282E, D6-K428E and D6-K208E/K282E mutant proteins were expressed and purified (as described below) and incubated at elevated temperatures (45° C. or 50° C. for 1 h for D6 variants) using a constant temperature water bath incubator. Aliquots were taken every 15 min and activities were measured by biotransformation and gas chromatography (as described below). The % residual activity corresponds to the ratio between the activity observed after incubation at each specified time over the activity of the enzyme without any thermal treatment.
(§2) A typical 500 μL reaction mixture in a 2 mL tube contained 10 mM amine, 0.05 to 1 mg mL^−1 of purified HDNO variant in pH 8 100 mM NaPi buffer. […] The organic fractions were combined and dried over anhydrous MgSO4 and analysed by GC-FID (conversions) or HPLC (enantiomeric ratios) on a chiral stationary phase (see Chromatography section for details). Turnover frequencies (TOF, min^−1) were calculated as the moles of product formed/moles of enzyme min^−1 based on conversions obtained by GC-FID analysis (see Chromatography method). […]

Series [4] in a line: Biotransformation of methylbenzylamine by purified HDNO variants. Type of series: biochemical. As to the method:
as §1, §2

The conditions of series [5]: MAO-N variants, (S)-enantiomer of PPY, ref [104]; cited from earlier work.

B1: D3: HDNO D2 plus N414H (E350L/E352D/N414H), SEQ ID NO: 4 (protein)
chain: MVSSKLATPLSIQGEVIYPDDSGFDAIANIWDGRHLQRPSLIARCLSAGDVAKSVRYACDNGLEISVRSGGHNPNGYATNDGGIVLDLRLMNSIHIDTAGSRARIGGGVISGDLVKEAAKFGLAAVTGMHPKVGFCGLALNGGVGFLTPKYGLASDNILGATLVTATGDVIYCSDDERPELFWAVRGAGPNFGVVTEVEVQLYELPRKMLAGFITWAPSVSELAGLLTSLLDALNEMADHIYPSVFVGVDENRAPSVTVCVGHLGGLDIAERDIARLRGLGRTVSDSIAVRSYDEVVALNAEVGSFEDGMSNLWIDREIAMPNARFAEAIAGNLDKFVSEPASGGSVKLLIDGMPFGNPKRTPARHRDAMGVLALAEWSGAAPGSEKYPELARELDAALLRAGVTTSGFGLLNHNSEVTAEMVAEVYKPEVYSRLAAVKREYDPENRFRHNYNIDPEGS
modifications: HDNO D3
On to B1, for which the “rate / activity increase towards PPY oxidation versus HDNO D2” value in series [1] (listed as 6-HDNO D3) was determined as 1.7 fold. In series [1] (listed as HDNO D3), the “rate / activity increase towards PPY oxidation versus HDNO D2” value is “almost twofold increase”. In series [1] (chiral HPLC), the “enantioselectivity of PPY oxidation” value is on record as “completely selective towards the oxidation of the (R)-enantiomer”. Also, in series [2], the Km worked out at 490 ± 140 µM and the kcat amounted to 0.71 ± 0.05 s⁻¹. For the same molecule, the residual activity in series [3] is 62%. Further, the “activity to methylbenzylamine lower than in HDNO D6” value in series [4] is listed as “about 20%”.

B2: D2: 6-hydroxy-D-nicotine oxidase from Arthrobacter nicotinovorans with E350L/E352D, SEQ ID NO: 2 (protein)
chain: MVSSKLATPLSIQGEVIYPDDSGFDAIANIWDGRHLQRPSLIARCLSAGDVAKSVRYACDNGLEISVRSGGHNPNGYATNDGGIVLDLRLMNSIHIDTAGSRARIGGGVISGDLVKEAAKFGLAAVTGMHPKVGFCGLALNGGVGFLTPKYGLASDNILGATLVTATGDVIYCSDDERPELFWAVRGAGPNFGVVTEVEVQLYELPRKMLAGFITWAPSVSELAGLLTSLLDALNEMADHIYPSVFVGVDENRAPSVTVCVGHLGGLDIAERDIARLRGLGRTVSDSIAVRSYDEVVALNAEVGSFEDGMSNLWIDREIAMPNARFAEAIAGNLDKFVSEPASGGSVKLLIDGMPFGNPKRTPARHRDAMGVLALAEWSGAAPGSEKYPELARELDAALLRAGVTTSGFGLLNNNSEVTAEMVAEVYKPEVYSRLAAVKREYDPENRFRHNYNIDPEGS
modifications: HDNO D2
On to B2, for which, in series [2], the Km was found to be 1060 ± 440 µM and the kcat stood at 0.50 ± 0.06 s⁻¹.

B3: N336S: evolved monoamine oxidase (MAO-N) variant N336S (protein, UniProt P46882 1-495, looked up, variant N336S)
Monoamine oxidase N: MTSRDGYQWTPETGLTQGVPSLGVISPPTNIEDTDKDGPWDVIVIGGGYCGLTATRDLTVAGFKTLLLEARDRIGGRSWSSNIDGYPYEMGGTWVHWHQSHVWREITRYKMHNALSPSFNFSRGVNHFQLRTNPTTSTYMTHEAEDELLRSALHKFTNVDGTNGRTVLPFPHDMFYVPEFRKYDEMSYSERIDQIRDELSLNERSSLEAFILLCSGGTLENSSFGEFLHWWAMSGYTYQGCMDCLISYKFKDGQSAFARRFWEEAAGTGRLGYVFGCPVRSVVNERDAARVTARDGREFAAKRLVCTIPLNVLSTIQFSPALSTERISAMQAGHVSMCTKVHAEVDNKDMRSWTGIAYPFNKLCYAIGDGTTPAGNTHLVCFGTDANHIQPDEDVRETLKAVGQLAPGTFGVKRLVFHNWVKDEFAKGAWFFSRPGMVSECLQGLREKHRGVVFANSDWALGWRSFIDGAIEEGTRAARVVLEELGTKREVKARL
Consider B3, for which, in series [5], the reported kcat was 2.50 s⁻¹.

B4: N336S/1246M: evolved monoamine oxidase (MAO-N) variant (protein, UniProt P46882 1-495, looked up, variant N336S I246M)
Monoamine oxidase N: MTSRDGYQWTPETGLTQGVPSLGVISPPTNIEDTDKDGPWDVIVIGGGYCGLTATRDLTVAGFKTLLLEARDRIGGRSWSSNIDGYPYEMGGTWVHWHQSHVWREITRYKMHNALSPSFNFSRGVNHFQLRTNPTTSTYMTHEAEDELLRSALHKFTNVDGTNGRTVLPFPHDMFYVPEFRKYDEMSYSERIDQIRDELSLNERSSLEAFILLCSGGTLENSSFGEFLHWWAMSGYTYQGCMDCLMSYKFKDGQSAFARRFWEEAAGTGRLGYVFGCPVRSVVNERDAARVTARDGREFAAKRLVCTIPLNVLSTIQFSPALSTERISAMQAGHVSMCTKVHAEVDNKDMRSWTGIAYPFNKLCYAIGDGTTPAGNTHLVCFGTDANHIQPDEDVRETLKAVGQLAPGTFGVKRLVFHNWVKDEFAKGAWFFSRPGMVSECLQGLREKHRGVVFANSDWALGWRSFIDGAIEEGTRAARVVLEELGTKREVKARL
For B4, the reported kcat in series [5] is 2.13 s⁻¹.
